This passage reports abundance fitness results from the Human Domainome abundance scans (Beltran et al. 2025).

The labels stand for the following.
B1: POU domain, class 4, transcription factor 3, residues 185 to 256; numbered along this chain, Q15319 (parent)
chain: RELEAFAERFKQRRIKLGVTQADVGAALANLKIPGVGSLSQSTICRFESLTLSHNNMIALKPVLQAWLEEAE

± gives the uncertainty stated by the source.

The series covers variants of B1. As to the kind of experiment: abundance fitness (aPCA) (normalised: wild type 0, dead -1); higher = more abundant; growth selection in yeast, the domain comes from the species named. To be noted: Homo sapiens.
As to RELEAFAERFKQRAIKLGVTQADVGAALANLKIPGVGSLSQSTICRFESLTLSHNNMIALKPVLQAWLEEAE, the abundance fitness is -1.1 ± 0.18.
For the variant RELEAFAERFKQRDIKLGVTQADVGAALANLKIPGVGSLSQSTICRFESLTLSHNNMIALKPVLQAWLEEAE, the abundance fitness was -0.454 ± 0.16.
The result for RELEAFAERFKQRFIKLGVTQADVGAALANLKIPGVGSLSQSTICRFESLTLSHNNMIALKPVLQAWLEEAE reads -1.11 ± 0.22; that for RELEAFAERFKQRQIKLGVTQADVGAALANLKIPGVGSLSQSTICRFESLTLSHNNMIALKPVLQAWLEEAE, -0.45 ± 0.13; that for RELEAFAERFKQRTIKLGVTQADVGAALANLKIPGVGSLSQSTICRFESLTLSHNNMIALKPVLQAWLEEAE, -1.15 ± 0.18.
Then RELEAFAERFKQRIIKLGVTQADVGAALANLKIPGVGSLSQSTICRFESLTLSHNNMIALKPVLQAWLEEAE, with -0.656 ± 0.19; and RELEAFAERFKQRSIKLGVTQADVGAALANLKIPGVGSLSQSTICRFESLTLSHNNMIALKPVLQAWLEEAE, with -1.06 ± 0.12; and RELEAFAERFKQRCIKLGVTQADVGAALANLKIPGVGSLSQSTICRFESLTLSHNNMIALKPVLQAWLEEAE, with -0.887 ± 0.13.
The result for RELEAFAERFKQRGIKLGVTQADVGAALANLKIPGVGSLSQSTICRFESLTLSHNNMIALKPVLQAWLEEAE reads -0.951 ± 0.13; that for RELEAFAERFKQREIKLGVTQADVGAALANLKIPGVGSLSQSTICRFESLTLSHNNMIALKPVLQAWLEEAE, -0.95 ± 0.34; that for RELEAFAERFKQRVIKLGVTQADVGAALANLKIPGVGSLSQSTICRFESLTLSHNNMIALKPVLQAWLEEAE, -0.759 ± 0.071.
RELEAFAERFKQRMIKLGVTQADVGAALANLKIPGVGSLSQSTICRFESLTLSHNNMIALKPVLQAWLEEAE: the abundance fitness was -0.945 ± 0.084.
Then RELEAFAERFKQRLIKLGVTQADVGAALANLKIPGVGSLSQSTICRFESLTLSHNNMIALKPVLQAWLEEAE, with -0.805 ± 0.058; and RELEAFAERFKQRNIKLGVTQADVGAALANLKIPGVGSLSQSTICRFESLTLSHNNMIALKPVLQAWLEEAE, with -1.02 ± 0.25.
RELEAFAERFKQRREKLGVTQADVGAALANLKIPGVGSLSQSTICRFESLTLSHNNMIALKPVLQAWLEEAE: the abundance fitness was -0.067 ± 0.079.
RELEAFAERFKQRRPKLGVTQADVGAALANLKIPGVGSLSQSTICRFESLTLSHNNMIALKPVLQAWLEEAE: the abundance fitness was -0.915 ± 0.36.
Take RELEAFAERFKQRRMKLGVTQADVGAALANLKIPGVGSLSQSTICRFESLTLSHNNMIALKPVLQAWLEEAE: the abundance fitness came out at 0.024 ± 0.061.
Then RELEAFAERFKQRRKKLGVTQADVGAALANLKIPGVGSLSQSTICRFESLTLSHNNMIALKPVLQAWLEEAE, with -0.052 ± 0.094; and RELEAFAERFKQRRLKLGVTQADVGAALANLKIPGVGSLSQSTICRFESLTLSHNNMIALKPVLQAWLEEAE, with -0.088 ± 0.044.
The result for RELEAFAERFKQRRGKLGVTQADVGAALANLKIPGVGSLSQSTICRFESLTLSHNNMIALKPVLQAWLEEAE reads -0.423 ± 0.14.
Then RELEAFAERFKQRRCKLGVTQADVGAALANLKIPGVGSLSQSTICRFESLTLSHNNMIALKPVLQAWLEEAE, with -0.223 ± 0.1; and RELEAFAERFKQRRAKLGVTQADVGAALANLKIPGVGSLSQSTICRFESLTLSHNNMIALKPVLQAWLEEAE, with -0.093 ± 0.15; and RELEAFAERFKQRRNKLGVTQADVGAALANLKIPGVGSLSQSTICRFESLTLSHNNMIALKPVLQAWLEEAE, with -0.147 ± 0.13.
RELEAFAERFKQRRQKLGVTQADVGAALANLKIPGVGSLSQSTICRFESLTLSHNNMIALKPVLQAWLEEAE: the abundance fitness is -0.321 ± 0.12.
RELEAFAERFKQRRDKLGVTQADVGAALANLKIPGVGSLSQSTICRFESLTLSHNNMIALKPVLQAWLEEAE: the abundance fitness is -0.229 ± 0.071.
In the case of RELEAFAERFKQRRHKLGVTQADVGAALANLKIPGVGSLSQSTICRFESLTLSHNNMIALKPVLQAWLEEAE, the abundance fitness is -0.37 ± 0.19.
The result for RELEAFAERFKQRRFKLGVTQADVGAALANLKIPGVGSLSQSTICRFESLTLSHNNMIALKPVLQAWLEEAE reads -0.32 ± 0.078; that for RELEAFAERFKQVRIKLGVTQADVGAALANLKIPGVGSLSQSTICRFESLTLSHNNMIALKPVLQAWLEEAE, -0.018 ± 0.033; that for RELEAFAERFKQQRIKLGVTQADVGAALANLKIPGVGSLSQSTICRFESLTLSHNNMIALKPVLQAWLEEAE, -0.069 ± 0.18.
The result for RELEAFAERFKQKRIKLGVTQADVGAALANLKIPGVGSLSQSTICRFESLTLSHNNMIALKPVLQAWLEEAE reads -0.019 ± 0.067.
For the variant RELEAFAERFKQTRIKLGVTQADVGAALANLKIPGVGSLSQSTICRFESLTLSHNNMIALKPVLQAWLEEAE, the abundance fitness stood at 0.108 ± 0.072.
Then RELEAFAERFKQNRIKLGVTQADVGAALANLKIPGVGSLSQSTICRFESLTLSHNNMIALKPVLQAWLEEAE, with -0.119 ± 0.13; and RELEAFAERFKQYRIKLGVTQADVGAALANLKIPGVGSLSQSTICRFESLTLSHNNMIALKPVLQAWLEEAE, with -0.133 ± 0.074; and RELEAFAERFKQMRIKLGVTQADVGAALANLKIPGVGSLSQSTICRFESLTLSHNNMIALKPVLQAWLEEAE, with -0.094 ± 0.062.
Then RELEAFAERFKQSRIKLGVTQADVGAALANLKIPGVGSLSQSTICRFESLTLSHNNMIALKPVLQAWLEEAE, with 0.08 ± 0.049.
Then RELEAFAERFKQLRIKLGVTQADVGAALANLKIPGVGSLSQSTICRFESLTLSHNNMIALKPVLQAWLEEAE, with -0.139 ± 0.037; and RELEAFAERFKQPRIKLGVTQADVGAALANLKIPGVGSLSQSTICRFESLTLSHNNMIALKPVLQAWLEEAE, with -0.938 ± 0.28; and RELEAFAERFKQWRIKLGVTQADVGAALANLKIPGVGSLSQSTICRFESLTLSHNNMIALKPVLQAWLEEAE, with -0.297 ± 0.039.
